Results as given in patent US20030180295A1 (PHILADELPHIA HEALTH AND EDUCATION, published 2003).

Molecular target: T1, Thrombospondin (TSP-1) (UniProt P07996 19-1170, biotinylated in the ligand blot of Example 5)
T1 construct: also called thrombospondin-1; biotinylated TSP-1
Assay: resonant mirror biosensor, peptide alone on immobilized TSP-1

T1 sequence (P07996 19-1170 limits assumed): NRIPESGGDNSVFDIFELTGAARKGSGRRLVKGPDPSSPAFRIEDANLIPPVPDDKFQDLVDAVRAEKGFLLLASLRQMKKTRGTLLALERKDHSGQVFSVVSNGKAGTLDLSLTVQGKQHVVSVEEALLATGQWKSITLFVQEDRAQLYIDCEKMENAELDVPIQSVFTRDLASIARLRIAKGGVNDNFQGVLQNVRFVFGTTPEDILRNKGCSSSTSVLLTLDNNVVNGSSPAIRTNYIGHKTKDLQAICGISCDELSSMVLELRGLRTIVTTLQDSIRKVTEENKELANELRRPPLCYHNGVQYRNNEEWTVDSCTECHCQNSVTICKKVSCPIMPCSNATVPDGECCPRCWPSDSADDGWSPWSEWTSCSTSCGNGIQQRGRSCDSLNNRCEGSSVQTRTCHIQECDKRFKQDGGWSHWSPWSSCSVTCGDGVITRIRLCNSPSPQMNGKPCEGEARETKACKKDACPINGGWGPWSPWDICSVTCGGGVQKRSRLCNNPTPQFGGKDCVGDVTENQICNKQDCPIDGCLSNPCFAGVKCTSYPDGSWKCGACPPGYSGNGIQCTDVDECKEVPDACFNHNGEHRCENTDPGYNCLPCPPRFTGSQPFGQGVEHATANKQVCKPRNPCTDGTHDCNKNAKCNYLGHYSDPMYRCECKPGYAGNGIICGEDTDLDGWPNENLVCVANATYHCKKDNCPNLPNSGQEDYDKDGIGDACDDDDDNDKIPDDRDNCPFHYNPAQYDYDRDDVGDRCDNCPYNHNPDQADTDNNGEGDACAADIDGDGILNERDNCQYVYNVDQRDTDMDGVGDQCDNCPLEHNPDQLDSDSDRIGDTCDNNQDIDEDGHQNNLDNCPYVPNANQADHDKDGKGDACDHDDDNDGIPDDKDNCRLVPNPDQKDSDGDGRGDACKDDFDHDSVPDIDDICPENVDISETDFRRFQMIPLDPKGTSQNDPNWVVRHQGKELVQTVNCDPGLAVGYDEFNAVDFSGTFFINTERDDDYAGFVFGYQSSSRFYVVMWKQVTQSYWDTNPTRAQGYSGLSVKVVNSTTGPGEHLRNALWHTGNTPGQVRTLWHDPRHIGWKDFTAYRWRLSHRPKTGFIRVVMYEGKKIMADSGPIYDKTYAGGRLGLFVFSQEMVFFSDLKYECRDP

B1: Pro-His-Ser-Arg-Asn (SEQ ID NO: 10) (peptide)
peptide: PHSRN
notes: also called random negative control peptide; control peptide
- binding result: no binding
